The assay deals with rGlu^1-hPg[S741A] (human). As to the kind of experiment: SPR. In general terms: In SPR one partner is held on a chip, and binding of the other changes the refractive index at the surface.
Broadly, the Kd is the free concentration of one partner at which half of the binding sites on the other are occupied at equilibrium, for simple one-to-one binding. Low values mean higher affinity, high ones lower affinity. The koff is the first-order rate constant of dissociation. In turn, rSK_(NS223) (natural protein) came in with an equilibrium dissociation constant (Kd) of 255 nM and a koff of 0.00178 s⁻¹.

One may read the kon as the rate constant with which the complex forms. Read a low kon as slower complex formation. rSK_(NS210) (natural protein) showed an off-rate (koff) of 0.00737 s⁻¹ and an association rate constant (kon) of 302000 M⁻¹ s⁻¹.

With rSK_(NZ131) (natural protein), the koff stood at 0.0087 s⁻¹ and the association rate constant (kon) is 1.02e+06 M⁻¹ s⁻¹.

rSK_(NS53) (natural protein) registered a koff of 0.00616 s⁻¹ and an association rate constant (kon) of 1.18e+06 M⁻¹ s⁻¹.

Take rSK_(NS88.2) (natural protein): the Kd was 202 nM, the koff stood at 0.00314 s⁻¹ and the kon was found to be 15500 M⁻¹ s⁻¹.

rSK_(NS455) (natural protein) yielded a Kd of 232 nM, an off-rate constant (koff) of 0.00306 s⁻¹ and an on-rate constant (kon) of 13200 M⁻¹ s⁻¹.

rSK_(NS931) (natural protein): the koff came out at 0.00467 s⁻¹ and the kon came to 375000 M⁻¹ s⁻¹.

Substance rSK_(AP53) (natural protein) registered a Kd of 321 nM and a koff of 0.00246 s⁻¹.

These data come from publication PMC3516755.
